Values of other authors in publication PMC6530603.

Target: VP30 CTD (Zaire ebolavirus) (UniProt Q77DJ5)

In the case of “Nucleoprotein NP C-terminal region peptide (from UniProt P18272)”, the Kd is given as 5.7 µM.
